Test results published in US20250026849A1 (ARCELLX, published 2025).
Substitutions are numbered along the chain they refer to. Each block holds one binder with its values, some of them ahead of it.

Target: T1, BCMA (Homo sapiens (Human), UniProt Q02223 1-54, limits assumed)
T1 sequence: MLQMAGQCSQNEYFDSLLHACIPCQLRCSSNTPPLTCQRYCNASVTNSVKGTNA
Assay: ELISA, format not described
Design: unit not given here

ELISA_avg: 9.55
B1: D-domain SEQ ID NO: 282 (designed binder)
chain: MGSWQNFKYHLAMIKWYLEALGGSEAELANFEEFIAQFEINLQHYKGKGNPEVEALRKEAAAIRDELQAYRHN

ELISA_avg: 8.63
B2: D-domain SEQ ID NO: 283 (designed binder)
chain: B1 chain with Q5Y, M13I, Y17W, N30D, E33H, F34Y, Q37D, I40R, H44E

ELISA_avg: 14
B3: D-domain SEQ ID NO: 253 (designed binder)
chain: MGSWSGFKYRLAVIKWYLEALGGSEAELATFEEWIAEFETELQFYKGKGNPEVEALRKEAAAIRDELQAYRHN

ELISA_avg: 12.7
B4: D-domain SEQ ID NO: 262 (designed binder)
chain: B3 chain with S5A, W16Y, T30H, E33Q, E37H, T40G, E41M, F44D

ELISA_avg: 10.4
B5: D-domain SEQ ID NO: 274 (designed binder)
chain: B3 chain with S5V, G6D, R10H, T30D, E33N, E37H, T40S, E41I, F44Q

ELISA_avg: 11.6
B6: D-domain SEQ ID NO: 255 (designed binder)
chain: B3 chain with S5H, G6A, R10K, V13M, T30H, T40A, E41L, F44E

ELISA_avg: 6.03
B7: D-domain SEQ ID NO: 250 (designed binder)
chain: B3 chain with S5H, V13I, Y17W, T30F, E37S, T40R, E41D, F44I

ELISA_avg: 16.2
B8: D-domain SEQ ID NO: 248 (designed binder)
chain: B3 chain with S5H, G6E, V13L, E33H, W34H, E37Q, T40W, E41D, F44K

ELISA_avg: 13.9
B9: D-domain SEQ ID NO: 290 (designed binder)
chain: B3 chain with S5T, V13I, W16F, Y17M, T30F, E33Q, E37D, T40N, F44Y

ELISA_avg: 13
B10: D-domain SEQ ID NO: 254 (designed binder)
chain: B3 chain with S5G, G6Y, V13M, T30S, E33S, T40G, E41S, F44A

ELISA_avg: 13.7
B11: D-domain SEQ ID NO: 271 (designed binder)
chain: B3 chain with S5N, G6E, R10H, W16F, T30H, E33T, T40Y, F44K

ELISA_avg: 11.3
B12: D-domain SEQ ID NO: 280 (designed binder)
chain: B3 chain with G6E, R10K, V13L, T30H, E33G, E37N, E41T, F44K

ELISA_avg: 19.9
B13: D-domain SEQ ID NO: 259 (designed binder)
chain: B3 chain with S5Y, G6N, V13I, W16F, T30Q, E33I, T40H, E41D, F44G

ELISA_avg: 13.6
B14: D-domain SEQ ID NO: 291 (designed binder)
chain: MGSWHNFKYRLAIIKFMLEALGGSEAELAWFENWIADFEDSLQDYKGKGNPEVEALRKEAAAIRDELQAYRHN

ELISA_avg: 15.1
B15: D-domain SEQ ID NO: 257 (designed binder)
chain: MGSWNDFKYRLAIIKYYLEALGGSEAELAHFESYIASFEHDLQNYKGKGNPEVEALRKEAAAIRDELQAYRHN

ELISA_avg: 7.43
B16: D-domain SEQ ID NO: 263 (designed binder)
chain: B15 chain with N5T, D6A, Y16F, S37H, H40D, D41M, N44H

ELISA_avg: 8.91
B17: D-domain SEQ ID NO: 256 (designed binder)
chain: B15 chain with N5Q, D6H, Y16W, H30F, Y34F, S37K, N44K

ELISA_avg: 8.85
B18: D-domain SEQ ID NO: 277 (designed binder)
chain: B3 chain with S5Y, G6H, R10H, V13L, T30H, E33H, T40W, E41T, F44Q

ELISA_avg: 13.2
B19: D-domain SEQ ID NO: 273 (designed binder)
chain: MGSWVDFKYHLAVIKFWLEALGGSEAELANFETWIANFEQELQMYKGKGNPEVEALRKEAAAIRDELQAYRHN

ELISA_avg: 10.6
B20: D-domain SEQ ID NO: 268 (designed binder)
chain: B19 chain with V5N, D6T, W17M, N30F, T33Q, N37E, Q40V, E41T, M44S

ELISA_avg: 12.9
B21: D-domain SEQ ID NO: 258 (designed binder)
chain: B15 chain with N5G, D6A, Y16F, H30R, S33E, Y34F, S37N

ELISA_avg: 12.7
B22: D-domain SEQ ID NO: 272 (designed binder)
chain: B19 chain with D6Q, W17Y, N30H, N37E, Q40V, E41A, M44G

ELISA_avg: 9.34
B23: D-domain SEQ ID NO: 285 (designed binder)
chain: B19 chain with V5S, D6H, V13I, W17Y, N30G, T33I, N37K, Q40D

ELISA_avg: 12.8
B24: D-domain SEQ ID NO: 270 (designed binder)
chain: B3 chain with S5N, G6Q, W16F, T30H, E33T, E37A, T40E, E41Q

ELISA_avg: 21.2
B25: D-domain SEQ ID NO: 278 (designed binder)
chain: MGSWQGFKYHLALIKFYLEALGGSEAELAHFEHWLAEFEHDLQTYKGKGNPEVEALRKEAAAIRDELQAYRHN

ELISA_avg: 6.92
B26: D-domain SEQ ID NO: 275 (designed binder)
chain: B19 chain with D6E, W17T, N30D, T33E, W34E, N37R, Q40M, E41I, M44Q

ELISA_avg: 16.3
B27: D-domain SEQ ID NO: 249 (designed binder)
chain: B15 chain with D6M, I13H, Y16W, H30T, S33A, S37D, H40V, N44K

ELISA_avg: 7.93
B28: D-domain SEQ ID NO: 276 (designed binder)
chain: B25 chain with Q5S, G6H, F16W, H30K, H33F, L35I, D41N, T44M

ELISA_avg: 21.1
B29: D-domain SEQ ID NO: 269 (designed binder)
chain: B3 chain with S5T, G6Q, R10H, T30G, E33Q, T40K, E41T, F44E

ELISA_avg: 18.1
B30: D-domain SEQ ID NO: 304 (designed binder)
chain: MGSWSYFKYGLATIKEKLEALGGSEAELADFETWIAMFEKQLQEYKGKGNPEVEALRKEAAAIRDELQAYRHN

ELISA_avg: 21.1
B31: D-domain SEQ ID NO: 301 (designed binder)
chain: B30 chain with S5I, T13H, E16T, K17R, T33Q, M37E, Q41M, E44D

ELISA_avg: 17.6
B32: D-domain SEQ ID NO: 300 (designed binder)
chain: B30 chain with Y9W, T13H, E16L, K17R, T33F, M37E, K40G, Q41L, E44D

ELISA_avg: 13.3
B33: D-domain SEQ ID NO: 298 (designed binder)
chain: B30 chain with T13I, E16I, K17R, T33R, M37A, K40H, Q41D, E44Y

ELISA_avg: 18.4
B34: D-domain SEQ ID NO: 299 (designed binder)
chain: B30 chain with Y9F, T13H, E16L, K17R, T33Q, M37S, K40E, E44T

ELISA_avg: 6.3
B35: D-domain SEQ ID NO: 279 (designed binder)
chain: MGSWLSFKHHLALIKWYLEALGGSEAELASFEAWIALFEHQLQQYKGKGNPEVEALRKEAAAIRDELQAYRHN

ELISA_avg: 6.45
B36: D-domain SEQ ID NO: 296 (designed binder)
chain: B35 chain with L5F, L13V, Y17N, A33E, W34Q, L37E, H40S, Q41V, Q44A

ELISA_avg: 11
B37: D-domain SEQ ID NO: 260 (designed binder)
chain: B14 chain with H5E, N6Q, F16Y, N33S, D37N, D40S, S41D, D44H

ELISA_avg: 7.39
B38: D-domain SEQ ID NO: 287 (designed binder)
chain: B14 chain with H5V, R10K, F16Y, W30F, N33D, D37E, D40R, S41T, D44Q

ELISA_avg: 15.1
B39: D-domain SEQ ID NO: 261 (designed binder)
chain: B15 chain with N5Q, D6Q, H30G, S33T, S37K, H40E, D41V, N44S

ELISA_avg: 22.7
B40: D-domain SEQ ID NO: 297 (designed binder)
chain: B14 chain with H5G, M17H, G23S, W30T, N33A, D37N, D40S, S41M, D44N

ELISA_avg: 12
B41: D-domain SEQ ID NO: 292 (designed binder)
chain: MGSWFAFKHRLAVIKYMLEALGGSEAELAFFEHWIAQFEHDLQQYKGKGNPEVEALRKEAAAIRDELQAYRHN

ELISA_avg: 9.34
B42: D-domain SEQ ID NO: 288 (designed binder)
chain: B41 chain with F5S, A6N, H9Y, H33D, Q37D, H40L, D41H, Q44V

ELISA_avg: 3.71
B43: D-domain SEQ ID NO: 293 (designed binder)
chain: B41 chain with F5Y, A6E, H33N, D41E, Q44T

ELISA_avg: 11.4
B44: D-domain SEQ ID NO: 289 (designed binder)
chain: B41 chain with F5T, A6N, H9Y, R10K, Y16F, H33D, Q37G, H40I, Q44N

ELISA_avg: 13.1
B45: D-domain SEQ ID NO: 264 (designed binder)
chain: MGSWAHFKYRLAIIKFWLEALGGSEAELANFEEYIAEFESTLQVYKGKGNPEVEALRKEAAAIRDELQAYRHN

ELISA_avg: 18.4
B46: D-domain SEQ ID NO: 284 (designed binder)
chain: MGSWYQFKYHLAIIKWYLEALGGSEAELAGFENYIATFEQELQQYKGKGNPEVEALRKEAAAIRDELQAYRHN

ELISA_avg: 9.71
B47: D-domain SEQ ID NO: 286 (designed binder)
chain: B46 chain with Y5V, Q6G, Y9A, N33I, Y34F, T37D, Q40A, E41L, Q44M

ELISA_avg: 14.3
B48: D-domain SEQ ID NO: 265 (designed binder)
chain: B14 chain with H5A, I13L, F16W, M17H, W30S, N33I, D40E, D44W

ELISA_avg: 7.37
B49: D-domain SEQ ID NO: 267 (designed binder)
chain: MGSWTHFKYRLALIKWWLEALGGSEAELAGFEVHIADFEAQLQMYKGKGNPEVEALRKEAAAIRDELQAYRHN

ELISA_avg: 15.1
B50: D-domain SEQ ID NO: 266 (designed binder)
chain: B45 chain with H6T, I13L, F16W, W17H, N30D, E37G, S40E, T41G, V44K

ELISA_avg: 7.23
B51: D-domain SEQ ID NO: 295 (designed binder)
chain: MGSWFYFKQKLAFIKWYLEALGGSEAELANFEIYIAEFEVMLQQYKGKGNPEVEALRKEAAAIRDELQAYRHN

ELISA_avg: 14.9
B52: D-domain SEQ ID NO: 281 (designed binder)
chain: B14 chain with H5I, N6E, R10K, M17Y, W30H, N33H, D40F, S41V, D44Q

ELISA_avg: 4.54
B53: D-domain SEQ ID NO: 294 (designed binder)
chain: B41 chain with F5Y, A6K, R10K, F30W, H33E, Q37E, H40V, D41T, Q44D
